Residue numbers refer to the chain shown, from its start. “Also recorded” adds a separate entry of the source.
B1: ZIL11: fully canine anti IL-31 antibody, VH SEQ ID NO: 87, VL SEQ ID NO: 89 (antibody, listed as Canis familiaris, V domains shown)
VH: EVQLVESGGDLVKPAGSLRLSCVASGFTFRTYVMNWVRQAPGKGLQWVASINGGGSSPTYADAVRGRFTVSRDNAQNSLFLQMNSLRAEDTAVYFCVVSMVGPFDYWGQGTLVTVSS
VL: SSVLTQPPSVSVSLGQTATISCSGESLSNYYAQWFQQKAGQAPVLVIYKDTERPSGIPDRFSGSSSGNTHTLTISGARAEDEADYYCESAVSSDTIVFGGGT
B2: ZIL154: fully canine anti IL-31 antibody, VH SEQ ID NO: 99, VL SEQ ID NO: 101 (antibody, listed as Canis familiaris, V domains shown)
VH: EVHLVESGGDLVKPWGSLRLSCVASGFTFSDRGMSWVRQSPGKGLQWVAYIRYDGSRTDYADAVEGRFTISRDNAKNTLYLQMNSLRAEDTAVYYCARWDGSSFDYWGQGTLVTVSS
VL: DIVVTQTPLSLSVSPGETASFSCKASQSLLHSDGNTYLDWFRQKPGQSPQRLIYKVSNRDPGVPDRFSGSGSGTDFTLRISGVEADDAGLYYCMQAIHFPLTFGAGTKVELK
B3: Feline 15H05 1.1: felinized 15H05, FEL_15H05_VH1 with FEL_15H05_VL1 (antibody, V domains shown)
VH: QVLLVQSGAEVRTPGASVKIFCKASGYSFTSYTIHWLRQAPAQGLEWMGNINPTSGYTENNQRFKDRLTLTADTSTNTAYMELSSLRSADTAMYYCARWGFKYDGEWSFDVWGAGTTVTVSS
VL: EIQMTQSPSSLSASPGDRVTITCRASQGISIWLSWYQQKPGKVPKLLIYKASNLHIGVPSRFSGSGSGTDFTLTISSLEPEDAATYYCLQSQTYPLTFGGGTKLEIK
B4: Feline 15H05 2.2: felinized 15H05, FEL_15H05_VH2 with FEL_15H05_VL2 (antibody, V domains shown)
VH: B3 VH with S28G, L37V, A40S
VL: EITMTQSPGSLAGSPGQQVTMNCRASQGISIWLSWYQQKPGQHPKLLIYKASNLHIGVPDRFSGSGSGTDFTLTISNLQAEDVASYYCLQSQTYPLTFGGGTKLEIK
B5: Feline 15H05 3.2: felinized 15H05, FEL_15H05_VH3 with FEL_15H05_VL2 (antibody, V domains shown)
VH: B3 VH with T13K, A42E
VL: B4 VL
B6: Feline 15H05_VH1 mouse VL: heterochimeric antibody, FEL_15H05_VH1 with MU_15H05_VL (antibody, V domains shown)
VH: B3 VH
VL: DIQMNQSPSSLSASLGDTITVTCRASQGISIWLSWYQQKPGNIPKVLINKASNLHIGVPPRFSGSGSGTHFTLTITSLQPEDIATYYCLQSQTYPLTFGGGTKLEIN
B7: Feline 15H05_VH3 mouse VL: heterochimeric antibody, FEL_15H05_VH3 with MU_15H05_VL (antibody, V domains shown)
VH: B3 VH with T13K, A42E
VL: B6 VL
B8: Feline 15H05 1.1 FW1: FEL_15H05_VH1 with FEL_15H05_VL1_FW1 (antibody, V domains shown)
VH: B3 VH
VL: B3 VL with E1D, T5N, P15L, R18T, V19I, I21V
B9: Feline 15H05 1.1 FW2: FEL_15H05_VH1 with FEL_15H05_VL1_FW2 (antibody, V domains shown)
VH: B3 VH
VL: B3 VL with K42N, V43I, L46V, Y49N
B10: Feline 15H05 1.1 FW3: FEL_15H05_VH1 with FEL_15H05_VL1_FW3 (antibody, V domains shown)
VH: B3 VH
VL: B3 VL with S60P, D70H, S76T, E79Q, A83I
B11: Feline 15H05 1.1_FW1_2: FEL_15H05_VH1 with FEL_15H05_VL1_FW1_FW2 (antibody, V domains shown)
VH: B3 VH
VL: B6 VL with P60S, H70D, T76S, Q79E, I83A, N107K
B12: Feline 15H05 1.1 FW1_3: FEL_15H05_VH1 with FEL_15H05_VL1_FW1_FW3 (antibody, V domains shown)
VH: B3 VH
VL: B6 VL with N42K, I43V, V46L, N49Y, N107K

System: wildtype feline IL-31
Test: Indirect ELISA, binding to wildtype feline IL-31
Conditions: not given
Description: (§1) Mice and dogs were immunized with recombinant canine IL-31 (SEQ ID No. 155) for the purpose of identifying antibodies. Serum antibody titers from immunized animals were determined using an enzyme linked immunosorbent assay (ELISA). Canine or feline IL-31 (50 ng/well) was immobilized to polystyrene microplates and used as a capture antigen. Serum from immunized animals was diluted in phosphate buffered saline with 0.05% tween-20 (PBST). The presence of anti-IL-31 antibodies was detected with an appropriate secondary HRP labeled antibody. Following addition of a chromogenic substrate (SureBlue Reserve TMB 1-Component Microwell Peroxidase Substrate, KPL, Inc., Gaithersburg, Md.) and a ten minute incubation at room temperature (RT) the reaction was stopped with the addition of […] of 0.1 N HCl. The absorbance of each well was determined at an optical density (OD) of 450 nm. Antibodies were selected for their ability to bind canine and feline IL-31 using an ELISA. In some cases, further characterization was performed at the time of selection using an ELISA with a mutant form of the feline IL-31 protein as a capture antigen. Cells producing antibodies with desired binding and inhibitory properties were chosen for sequence analysis of RNA transcripts representing the variable heavy (VH) and variable light (VL) IgG chains.
(§2) For the indirect ELISA method, antibody binding to wildtype and feline IL-31 15H05 mutant proteins was assessed. […] In comparison, the 11E12 antibody bound to the wild-type feline IL-31 and its binding was not impacted by the mutations in the 15H05 epitope region as evidenced by the data in FIG. 4. To confirm binding, biacore analysis was performed using canine, feline, equine, human, feline 15H05 mutant, and feline 11E12 mutant IL-31 proteins as surfaces and a single test concentration of antibody. Similar to ELISA observations, all antibodies tested bound to wildtype feline IL-31. In agreement with the data described above in this section, mouse antibodies 11 E12 and 15H05 both bound to canine and feline IL-31 surfaces. […] From this group of nine fully canine antibodies, only ZIL1 and ZIL9 cross-reacted with equine IL-31. Of note, antibody 15H05 was the only one of all assayed herein that bound to canine, feline, and equine IL-31 indicating some level of epitope conservation across the three species. In contrast, none of the antibodies described herein bound to human IL-31. Additional biacore surfaces were used to verify ELISA observations showing differential binding of antibodies to wildtype feline IL-31 and two proteins with mutations in the 15H05 (15H05 mutant) or 11 E12 (11E12 mutant) epitopes. […] Differing results can be attributed to differences in the two assay methodologies.
(§3) To determine the impact of mAbs 11E12 and 15H05 ability to bind these mutant forms of feline IL-31, an indirect ELISA was run using the mutants directly coated on to an immunoassay plate. […] The minor attenuation of mAb 15H05s binding to the 11E12 mutant is likely due to translational effects of the mutations from movement of the two front helices effecting the 15H05 binding site. The mutations designed to affect mAb 15H05s binding (mutant 15H05) show a complete loss of mAb 1505s ability to bind this IL-31 mutant by ELISA. Unlike the 11E12 mutant, the changes in the random coil recognized by mAb 15H05 (mutant 15H05) had no impact on mAb 11E12 binding further supporting the distinction between the two epitopes (FIG. 6C).

wildtype feline IL-31, sequence (as listed by the source): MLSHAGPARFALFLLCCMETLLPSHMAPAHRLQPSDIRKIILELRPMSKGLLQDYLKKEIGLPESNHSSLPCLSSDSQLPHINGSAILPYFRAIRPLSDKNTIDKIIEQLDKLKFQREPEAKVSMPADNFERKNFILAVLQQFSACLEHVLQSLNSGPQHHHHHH

| Molecule | binding to wildtype feline IL-31 (ELISA) |
| --- | --- |
| B1 | capable of binding |
| B2 | capable of binding |

Biological target: canine IL-31
Test: Affinity of anti-IL-31 antibodies by surface plasmon resonance (Biacore), canine IL-31 surface
Format: binding
Conditions: IL-31 conjugated to the surface (FIG. 2)
Description: (§4) The affinity with which candidate mAbs bind canine and feline IL-31 was determined using surface plasmon resonance (SPR) on a Biacore system (Biocore Life Sciences (GE Healthcare), Uppsala, Sweden). To avoid affinity differences associated with differential surface preparation that can occur when immobilizing antibodies to surfaces; a strategy was employed where IL-31 was directly conjugated to the surface. Immobilization was obtained by amine coupling 5 μg/mL IL-31 using N-hydroxysuccinimide (NHS)/1-Ethyl-3-(3-dimethylaminopropyl) carbodiimide (EDC) chemistry. Chips were quenched with ethanolamine and the affinity with which all candidate mAbs bound to the immobilized IL-31 was evaluated. All curves were fit to a 1:1 model. Affinity constants (KD) less than 1×10^−11M (1E-11 M) are below the lower limit of quantitation of detection for the instrument. Results for affinity measurements are described herein.

canine IL-31, sequence (as listed by the source): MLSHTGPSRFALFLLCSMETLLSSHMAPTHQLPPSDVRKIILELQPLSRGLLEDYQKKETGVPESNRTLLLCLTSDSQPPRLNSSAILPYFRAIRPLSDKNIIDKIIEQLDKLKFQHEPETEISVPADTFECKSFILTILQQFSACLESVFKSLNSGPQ

| Molecule | affinity (KD) to canine IL-31 |
| --- | --- |
| B3 | neutral to positive impact on affinity |
| B4 | neutral to positive impact on affinity |
| B5 | neutral to positive impact on affinity |
| B6 | improved affinity |
| B7 | improved affinity |
| B8 | detrimental to the affinity |
| B9 | excellent affinity; also recorded: increased affinity |
| B10 | excellent affinity |
| B11 | good affinity |
| B12 | good affinity |

System: feline IL-31 15H05 mutant
Test: Indirect ELISA, binding to feline IL-31 15H05 mutant
Conditions: compared with wildtype
Description: as §1, §2, §3

feline IL-31 15H05 mutant, sequence (as listed by the source, change not shown): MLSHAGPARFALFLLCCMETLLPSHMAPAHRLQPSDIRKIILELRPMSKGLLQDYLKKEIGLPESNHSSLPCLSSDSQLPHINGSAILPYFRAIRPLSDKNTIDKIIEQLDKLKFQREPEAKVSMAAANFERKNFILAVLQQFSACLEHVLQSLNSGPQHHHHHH

| Molecule | binding to feline IL-31 15H05 mutant (ELISA) |
| --- | --- |
| B1 | binding was impacted |
| B2 | binding was impacted |

Biological target: feline IL-31
Test: Affinity of anti-IL-31 antibodies by surface plasmon resonance (Biacore), feline IL-31 surface
Format: binding
Conditions: IL-31 conjugated to the surface (FIG. 2)
Description: as §4

feline IL-31, sequence (as listed by the source): as the sequence (as listed by the source, change not shown) above, with A126P, A128D counted along it

| Molecule | affinity (KD) to feline IL-31 |
| --- | --- |
| B6 | restored the affinity to feline IL-31 to equivalent or better than the mouse and chimeric forms |
| B7 | restored the affinity to feline IL-31 to equivalent or better than the mouse and chimeric forms |
| B8 | detrimental to the affinity |
| B9 | excellent affinity; also recorded: increased affinity |
| B10 | excellent affinity |
| B11 | good affinity |
| B12 | good affinity |

Reference: patent US11433139B2, “Peptide vaccines against interleukin-31” (Zoetis Services LLC, priority 2018, dated 2022)
